The results in this text go back to patent US20250387450A1 (AIKIUM, published 2025).

Assay [1] has as its target T1, KAAG1 disordered region peptide, PGAAAAHLPRWPPPQLAASRREA (biotin label).
T1 construct: also called KAAG1 Peptide
T1 peptide: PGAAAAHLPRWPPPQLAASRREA
Briefly: ELISA: scaffold coated on plate, biotinylated peptide titrated, streptavidin-HRP fluorescence. On the procedure: (§1) Binder proteins were coated on the surface of a high binding capacity 96 well plate by incubating 100 μL of protein at 5 μg/mL in a coating solution (10 mM Tris pH 8.8, 50 mM NaCl), overnight at 4 C. The next morning, the coating solution was aspirated out and wells were washed once with 300 μL ELISA wash buffer (1×PBS, 0.05% Tween-20) and solution was aspirated out. The wells were blocked with 200 μL of a blocking buffer (1×PBS, 0.05% Tween-20, 3% BSA) at room temperature for 1 hour. After one hour, the blocking solution was aspirated out and 100 μL of biotinylated polypeptide in a binding buffer (1×PBS, 0.05% Tween-20, 0.5% BSA) at various concentrations was added to the appropriate well and incubated for 20 minutes. Peptide solution was aspirated out after 20 minutes and wells were washed 5 times with 300 μL of ELISA wash buffer. To detect the biotinylated peptide, 100 μL of streptavidin-HRP (50 ng/ml) was added to each well and incubated for 1 hour. The wells were subsequently washed 5 times with 300 μL of ELISA wash buffer. 100 μL of QuantaBlu Fluorogenic Peroxidase substrate solution was added to each well, incubated for 30 minutes and reaction stopped by adding 100 μL of stop solution. Fluorescent signal from each well was measured using a Biotek Cytation5 plate reader by exciting the fluorophore at […] and measuring emission at 420 nm. Fluorescent signals were plotted as a function of polypeptide concentration.
A general note: In an ELISA, binding on a coated surface is turned into a signal by an enzyme label.

The target of assay [2] is T2, TNFRSF13B disordered region peptide, LPPELRRQRSGEVENNSDNSGRYQ (biotin label).
T2 construct: also called TNFRSF13B Peptide
T2 peptide: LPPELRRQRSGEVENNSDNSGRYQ
Described as above. On the procedure: as §1

Assay [3] deals with T3, KCNA6 short linear epitope peptide, QQQEQQPASGGGGQNGQQAMS (biotin label).
T3 construct: also called KCNA6 Peptide
T3 peptide: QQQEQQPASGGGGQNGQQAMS
The description is as above. On the procedure:
as §1

The target of assay [4] is T4, CYSLTR2 short linear epitope peptide, SISVSEMEPNGTFSNNNSRNC (N-terminal biotin).
T4 peptide: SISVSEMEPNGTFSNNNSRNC
The assay is described as above. The method, then:
as §1

In assay [5] the target is T5, GMERKFMSLQPSISVSEMEPNGTFSNNNSRNCTIENFKREFFP (biotinylated, position not given).
T5 construct: also called CYSLTR2 (longer peptide of the disordered region)
T5 peptide: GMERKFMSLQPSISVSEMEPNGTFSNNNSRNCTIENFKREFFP
The assay is described as above. The method, then: as §1

Assay [6] concerns the target T6, CD40LG short linear epitope peptide, NKEETKKENSFEMQKGDQNPQIAAH (biotin label).
T6 construct: also called CD40LG Peptide
T6 peptide: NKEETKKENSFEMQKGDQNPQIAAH
The description is as above. On the procedure:
as §1

The target of assay [7] is T7, CD74 disordered region peptide (CLIP), PPKPVSKMRMATPLLMQALPMGALP (biotin label).
T7 construct: also called CD74 Peptide
T7 peptide: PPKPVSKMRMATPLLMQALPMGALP
The assay can be described thus: modified sandwich ELISA, fluorescence grade by the table's key. On the procedure:
as §1

In assay [8] the target is T8, CYSLTR2 N-terminal disordered region peptide, MERKFMSLQPSISVSEMEPNGTFSNNNSRNCTIENFKREFFP (biotin label).
T8 construct: also called CysLT2; CysLT2r
T8 peptide: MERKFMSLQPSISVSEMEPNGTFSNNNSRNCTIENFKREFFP
The assay can be described thus: ELISA: scaffold coated on plate, biotinylated peptide titrated, streptavidin-HRP fluorescence. The method, then:
as §1

In assay [9] the target is T1, KAAG1 disordered region peptide, …. The assay can be described thus: modified sandwich ELISA, fluorescence grade by the table's key. On the procedure:
as §1

The target of assay [10] is T2, TNFRSF13B disordered region peptide, …. Briefly: modified sandwich ELISA, grade by the table's key. The method, then:
as §1

The target in assay [11] is T9, Urotensin-2 receptor N-terminal peptide, MALTPESPSSFPGLAATGSSVPEPPGGPNATLNSSWASPTEPSSLEDLVATGTI (biotin label).
T9 construct: also called Urotensin IIR; GPCR2 (Urotensin II)
T9 peptide: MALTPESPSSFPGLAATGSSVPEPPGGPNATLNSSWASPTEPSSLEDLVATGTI
The assay can be described thus: modified sandwich ELISA, grade by the table's key. The method, then: as §1

In assay [12] the target is T10, 25 amino acid epitope of CLIP (CD74).
T10 construct: also called CLIP Peptide
The assay can be described thus: BLI (Octet RED), biotinylated peptide on streptavidin sensor. A general note: BLI is a label-free optical method that tracks binding on a fibre tip over time.
Protocol: Streptavidin sensor tips for the BLI instrument were equilibrated in an equilibration buffer (1×PBS, 0.05% Tween 20, 0.5% BSA) for 5 minutes. Biotinylated polypeptide in the equilibration buffer at 0.5 μM was loaded on the streptavidin sensor over 60 s. After substrate loading, the sensor tips were washed in the equilibrating buffer for 5 minutes to block non-specific binding and to obtain a baseline reading. Peptide loaded and blocked tips were then introduced into wells containing polypeptides in the equilibrating buffer at varying concentrations. The binding and dissociation data are fit using the OCTET software to obtain kₒₙ, koff and consequently KD, the binding affinity.

Assay [13] addresses T11, CRACM disordered region polypeptide.
T11 construct: domain: disordered region
Briefly: modified sandwich ELISA, fluorescence grade by the table's key. The method, then:
as §1

Assay [14] addresses T8, CYSLTR2 N-terminal disordered region …. Described as above. On the procedure:
as §1

The target of assay [15] is T7, CD74 disordered region peptide (CLIP), …. Briefly: ELISA: scaffold coated on plate, biotinylated peptide titrated, streptavidin-HRP fluorescence. On the procedure: as §1
The target of assay [16] is T8, CYSLTR2 N-terminal disordered region …. The assay can be described thus: ELISA, fluorescence at 10000 nM peptide divided by the no-scaffold control. The method, then:
as §1

The target in assay [17] is T4, CYSLTR2 short linear epitope peptide, …. The assay can be described thus: ELISA: scaffold coated on plate, N-terminally biotinylated peptide titrated, streptavidin-HRP fluorescence. On the procedure: as §1
A further assay concerns the target T12, MERKFMSLQPSISVSEMEPNG (N-terminal biotin).
T12 construct: also called CYSLTR2 N-terminal 21-mer peptide
T12 peptide: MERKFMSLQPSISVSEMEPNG
Described as above. The method, then:
as §1

Assay [18] concerns the target T8, CYSLTR2 N-terminal disordered region …. Briefly: modified sandwich ELISA (FIGS. 30A, 30B). The method, then: as §1, with “Fluorescent signals were plotted as a function of polypeptide concentration.” left out

B1: engineered scaffold protein S194 (designed binder)
chain: MGIKEEHVINQAEYYLNPDQSGEFKFDFDGDEIFHVDMAKKETVWRLEEFGRFASFEAQGALAHIAVDKANLEIMTKRSNYTPMGGGSKARMATGALAQAGGSGGSGDTRPRFLWQLKYECHFFNGTERVRLNERCIYNQEESVRFDSDVGEYRAVTELGRPDAEQWNSQKDHLEQRRAAVDTKCRHNYGVGESFTVQGGSHHHHHH
For the molecule B1, the binding result is given as “no binding (tested: 10000 nM)” in assay [1]; “no binding (tested: 10000 nM)” in assay [2]; “no binding (tested: 10000 nM)” in assay [3]; “binds” in assay [4]; “binds” in assay [5]; “no binding (tested: 10000 nM)” in [6].

B2: engineered scaffold protein S164 (designed binder)
chain: GIKEEHSIRQNEKYNNPDQSGNFEFHLDGQPIFRVDMQKKRTKWQLEEFGRFASFEAQGALANIAVFKINLEIMTKRSNQSEAGSHSWQLNFTCEFHEGTESVRLSERSYYNQENFVSFNSDVGEYRATTELGRPMAEYVNSQKDTLEQRRAAVDTYCRHNYGVGEYFTVQRR
For B2, in assay [7], the fluorescent signal is greater than 400000 fluorescentsignal. For the same molecule, the binding result in assay [1] and in [8] was “no binding (tested: 10000 nM)” in each case.

B3: engineered scaffold protein S055 (designed binder)
chain: GSHSMRYNYTSVSRPGRGEPRFLSEGHVDDTQFVRFDSDAASPREEPRAPWIEQEGPEYWDRNTQIYKAQAQTDRESLRNLRGYYNQSEAGSHTLQSIYGCDVGPDGRLLRGHDQYYYDGKDYISLNEDLRSWTAADTAAQITQRKWEAAREAEQRRAYLEGECVEWLRRYLENGKDKLERADGGSHHHHHHLE
As to B3, the fluorescent signal was 50000 to 100000 fluorescentsignal in [9] and greater than 400000 fluorescentsignal in [7].

B4: engineered scaffold protein S056 (designed binder)
chain: GSHSMRYNYTSVSRPGRGEPRFLSEGHVDGQPFVRFDSDAASPREEPRAPWIEQEGPEYWDRNTQIYKAQAQTDRESLRNLRGYYNQSEAGLHSLNSIYVCDVGPDGRLLRGHDHYYYDGELYISLNEDLRSWTAADTAAQITQRKWEAAREAEQRRAYLEGECVEWLRRYLENGKDKLERADGGSHHHHHHLE
In the case of B4, the fluorescent signal in assay [9] was 50000 to 100000 fluorescentsignal; in [7] it was greater than 400000 fluorescentsignal.

B5: engineered scaffold protein S005 (designed binder)
chain: MIKEEHVIIQAEFYLNPDQSGEFMFDFDGDEIFHVDMAKKETVWRLEEFGRFASFEAQGALANIAVDKANLEIMTKRSNYTPMGDTRPRFLWQLKFECHFFNGTERVRLLERCIYNQEESVRFDSDVGEYRAVTELGRPDAEYWNSQKDLLEQRRAAVDTYCRHNYGVGESFTVQGGSHHHHHHLE
notes: Derived from MHC II; also called scaffold v1.1; v1.1
In the case of B5, the binding result is listed as “no binding (tested: <5000 (fluorescence, key))” in assay [10]; “no binding (tested: <5000 (fluorescence, key))” in assay [11]; “binds” in [4]. This molecule also yielded a dissociation constant Kd in assay [12] of 840 nM. Further, the fluorescent signal in assay [13] was 100000 to 250000 fluorescentsignal; in assay [7], greater than 400000 fluorescentsignal; in [14], 100000 to 250000 fluorescentsignal. The “EC50 (read off the curve)” value in [15] is roughly 300 nM. Besides, in assay [16], the “Fold Change (Relative Binding)” value worked out at 18.5 x. The “Relative Binding (signal over the no-scaffold control)” value in assay [16] turned out to be 18.5 x.

B6: engineered scaffold protein S177 (designed binder)
chain: MIKEEHVINQAEYYLNPDQSGEFKFDFDGDEIFHVDMAKKETVWRLEEFGRFASFEAQGALAHIAVDKANLEIMTKRSNYTPMGDTRPRFLWQLKYECHFFNGTERVRLNERCIYNQEESVRFDSDVGEYRAVTELGRPDAEQWNSQKDHLEQRRAAVDTKCRHNYGVGESFTVQGGSHHHHHHLE
For the molecule B6, in [14], the fluorescent signal is 100000 to 250000 fluorescentsignal. In addition, the binding result in assay [1] was “no binding (tested: 10000 nM)”; in assay [2], “no binding (tested: 10000 nM)”; in assay [3] it was “no binding (tested: 10000 nM)”; in assay [5], “binds”; in assay [6], “no binding (tested: 10000 nM)”; in [17], “binds”. The binding result with MERKFMSLQPSISVSEMEPNG is given as “no binding (tested: 10000 nM)”.

B7: engineered scaffold protein S171 (designed binder)
chain: GDTRPRFLWQLKWECHFYNGTERVRLNERCNYNQEESVRFDSDVGEYRAVTELGRPDAEFSNSQKDNLEQRRAAVDTLCRHNYGVGESFTVQRRSGGGIKEEHVINQAEYYLNPDQSGEFKFDFDGDEIFHVDMAKKETVWRLEEFGRFAIIEAYGALANIAVDKANLEIMTKQSNYT
In turn, B7 yielded a fluorescent signal in assay [7] greater than 400000 fluorescentsignal. For the same molecule, the binding result in assay [1] and in assay [8] was “no binding (tested: 10000 nM)” throughout.

B8: engineered scaffold protein S090 (designed binder)
chain: IKEEHSIRQNEMYLNPDQSGLFEFHLDGQPIFRVDMQKKRTKWQLEEFGRFASFEAQGALANIAVDKANLEIMTKRSNQSEAGSHSWQLIFVCEFHEGTESVRLSERCYYNQELSVSFNSDVGEYRAVTELGRPDAEYWNSQKDLLEQRRAAVDTYCRHNYGVGESFTVQRRGGSHHHHHHLE
notes: also called scaffold v1.2; v1.2
For B8, the binding result in assay [10] is “no binding (tested: <5000 (fluorescence, key))”; in [17] it was “binds”; with MERKFMSLQPSISVSEMEPNG it was “no binding (tested: 10000 nM)”. In addition, the fluorescent signal is 250000 to 400000 fluorescentsignal in assay [9], greater than 400000 fluorescentsignal in assay [7] and 250000 to 400000 fluorescentsignal in assay [14]. Further, the “EC50 (read off the curve)” value in assay [15] is roughly 500 nM. Further, the “Fold Change (Relative Binding)” value in assay [16] turned out to be 37.2 x. Further, the “Relative Binding (signal over the no-scaffold control)” value in [16] came out at 37.2 x. In addition, the “fold higher affinity compared to a non-specific protein binder” value in assay [18] was greater than 65 fold.

What is called Kd is the equilibrium constant for the complex coming apart. Usually EC50 (read off the curve) stands for the concentration giving half of the maximal effect.
